This is an account of results in US20220195058A1 (Regeneron, published 2022).

This experiment deals with T1, human NPR1 (hNPR1) with a C-term myc and FLAG tag, stably expressed on HEK293 cells (human, UniProt P16066 33-1061).
T1 sequence: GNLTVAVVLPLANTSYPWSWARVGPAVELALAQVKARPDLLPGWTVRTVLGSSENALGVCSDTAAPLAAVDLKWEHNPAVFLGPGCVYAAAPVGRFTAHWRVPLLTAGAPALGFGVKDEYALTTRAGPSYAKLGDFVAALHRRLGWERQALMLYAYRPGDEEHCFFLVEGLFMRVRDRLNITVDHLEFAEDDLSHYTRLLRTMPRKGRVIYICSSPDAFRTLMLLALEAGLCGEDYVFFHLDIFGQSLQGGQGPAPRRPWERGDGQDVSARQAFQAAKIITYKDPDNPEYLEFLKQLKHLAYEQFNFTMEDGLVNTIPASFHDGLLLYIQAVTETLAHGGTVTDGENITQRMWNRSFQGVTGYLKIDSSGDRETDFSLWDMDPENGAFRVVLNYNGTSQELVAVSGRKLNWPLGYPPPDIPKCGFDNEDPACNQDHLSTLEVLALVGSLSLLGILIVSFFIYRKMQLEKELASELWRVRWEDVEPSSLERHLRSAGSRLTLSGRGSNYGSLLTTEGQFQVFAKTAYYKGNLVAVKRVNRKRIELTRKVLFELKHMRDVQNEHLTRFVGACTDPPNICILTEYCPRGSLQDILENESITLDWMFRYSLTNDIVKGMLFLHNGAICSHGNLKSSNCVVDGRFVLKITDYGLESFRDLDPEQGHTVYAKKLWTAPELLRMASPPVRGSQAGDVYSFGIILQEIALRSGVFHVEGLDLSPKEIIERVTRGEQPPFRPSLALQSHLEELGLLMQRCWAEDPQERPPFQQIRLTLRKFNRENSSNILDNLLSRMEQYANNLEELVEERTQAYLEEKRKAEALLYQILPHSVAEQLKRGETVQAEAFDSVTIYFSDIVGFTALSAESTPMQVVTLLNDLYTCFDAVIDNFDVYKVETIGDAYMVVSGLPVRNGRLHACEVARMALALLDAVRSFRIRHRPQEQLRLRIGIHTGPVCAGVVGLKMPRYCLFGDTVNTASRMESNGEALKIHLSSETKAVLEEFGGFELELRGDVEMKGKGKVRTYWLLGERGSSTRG
Description: cell-based or functional assay.

B1: R5381 (antibody, V domains shown)
VH: QVQLVQSGAEVKKPGASVTVSCKASGYTFTDYYMHWVRQAPGQGLEWMGWIKPNSGGTNSAQRFQGRITMTWDTSISTAYMELSRLRSDDTAVYYCSRGGPVMNYYYYYGMDVWGQGTTVTVSS
VL: NIQMTQSPSSLSASVGDRVTITCRASQSIDSYLNWYQQKPGKAPKLLIYVASSLQSGVPSRFSGSGSGKDFTLTISSLQPEDFATYYCQQSYSIPTFGQGTRLEIKR
Take B1: the “cGMP accumulation (HTRF) EC50, no ligand” value came out at 31.2 nM; the “cGMP accumulation (HTRF) EC50, with 40 pM ANP” value was found to be 2.07e-08 M; the “cGMP accumulation (HTRF) EC50, with 80 pM BNP” value came out at 1.78e-09 M.
